Numbering of substitutions follows the chain as printed. Names and notes keep the numbering of the source.
B1: BdHPPD-02: native Brachypodium distachyon HPPD, SEQ ID NO: 45 (protein)
chain: MPPPATTAAPAAAAVTPEHARPPRRVARVNPRSDRFSALSFHHVELWCADAASAAGRFSFALGAPPAARSDLSTGNSAHASILLRSGSLAFLFTAPYAPSPASDSAASIPSFSASAARQFTADHGGLAVRAVALRVSSASDAFHASVSAGARPSFPPADLGQGFALAEVELYGDVVLRFISHPDENTEIPFLPGFESVSNPGASTYGLTRFDHVVGNVPSLAPVAAYIAGFTGFHEFAEFTAEDVGTADSGLNSVVLANNSERVLLPLNEPVHGTKRRSQIQTYLDHHGGPGVQHIALASDDVLRTLREMRARSAMGGFEFLAPPPPNYYDGVRRRAGDVLSEAQIKECQELGVLVDRDDQGVLLQIFTKPVGDRPTLFLEMIQRIGCMEKDEIGQEQQKGGCGGFGKGNFSELFRSIEEYEKSLEAKQSAVVQES
modifications: Brachypodium distachyon; BdHPPD Amino Acid Sequence
B2: BdHPPDm-F372A-02: Brachypodium distachyon HPPD mutant F372A, SEQ ID NO: 48 (protein)
chain: B1 chain with F368A
modifications: BdHPPDm-F372A Amino Acid Sequence
B3: N4HPPDm-F372A-02: Burkholderia sp. N4 HPPD mutant F372A, SEQ ID NO: 168 (protein)
chain: MQIPNWENPVGTDGFEFIEYTAPDPKALGQLFERMGFTAIARHRHKDVTVYRQGDINFIINAEPDSFAQRFARLHGPSICAIAFRVQDAAKAYQHALELGAWGFDNKTGPMELNIPAIKGIGDSLIYFVDRWRGKNGAQPGAIGDISIYDVDFEPIAGATPNPAGHGLTYIDHLTHNVHRGRMQEWAEFYERLFNFREVRYFDIEGKVTGVKSKAMTSPCGKIRIPINEEGSDTAGQIQEYLDAYHGEGIQHIALGTSDIYGAVDGLRGKEVKLLDTIDTYYELVDRRVPDHGESLDELKKRKILIDGARDDLLLQIATENQIGPIFFEIIQRKGNQGFGEGTFKALFESIELDQIRRGVVQDKA
modifications: N4HPPDm-F372A Amino Acid Sequence
B4: TaHPPDm-F372A-02: Triticum aestivum HPPD mutant F372A, SEQ ID NO: 42 (protein)
chain: MPPTPTTPAATGAGAAAAVTPEHARPRRMVRFNPRSDRFHTLSFHHVEFWCADAASAAGRFAFALGAPLAARSDLSTGNSVHASQLLRSGNLAFLFTAPYANGCDAATASLPSFSADAARRFSADHGLAVRSIALRVADAAEAFRASVDGGARPAFSPVDLGRGFGFAEVELYGDVVLRFVSHPDGTDVPFLPGFEGVSNPGAVDYGLTRFDHVVGNVPELASAAAYVAGFTGFHEFAEFTTEDVGTAESGLNSMVLANNSEGVLLPLNEPVHGTKRRSQIQTFLEHHGGPGVQHIAVASSDVLRTLREMRARSAMGGFDFLPPPLPKYYEGVRRIAGDVLSEAQIKECQELGVLVDRDDQGVLLQIATKPVGDRPTLFLEMIQRIGCMEKDERGEEYQKGGCGGFGKGNFSELFKSIEDYEKSLEAKQSAAVQGS
modifications: TaHPPDm-F372A Amino Acid Sequence
B5: N5HPPD-02: native Sphingobium sp. N5 HPPD, SEQ ID NO: 171 (protein)
chain: MAADSENPLGLHGFAFAEFTSPDPAAMARQFEQLGFVPAARRKDRGLTLYRQGRIAFILNAGEGEQASAFRAAHGPSANGMAFNVADAKAAHRHAIQSGATDADTAQSALPGTYAIEGIGDSLLYLVDSDPFADWDEVPGWREASAERGVGLDLLDHLTHNVRRGQMRVWSEFYATLFGFEEQKFFDIKGQATGLFSQAMIAPDHEIRIPLNESQDDNSQIEEFIREYNGEGIQHLALTTPDIYSTVEKLRANGVRLQDTIDTYYDLVDERVPGHGEDLARLRKNRILIDGDVHDEGLLLQIFTETMFGPIFFEIIQRKGNEGFGNGNFQVLFESIELDQIRRGVVTVDA
modifications: N5HPPD Amino Acid Sequence (Burkholderia)
B6: N5HPPDm-F372A-02: Sphingobium sp. N5 HPPD mutant F372A, SEQ ID NO: 174 (protein)
chain: B5 chain with F303A
modifications: N5HPPDm-F372A Amino Acid Sequence

Each molecule was assayed on Arabidopsis thaliana T1 plants (assay: Topramezone tolerance of transgenic Arabidopsis thaliana T1 plants (pesticide damage grade by bleached leaf area, score, resistance evaluation)). Details: HPPDs from different species; number of plants (of 16) in this grade; topramezone 25 g ai/ha (1x), 7 DAT.
Type: in vivo
Procedure, shortened: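 Eighteen days after sowing, wild-type and HPPD-transgenic T1 Arabidopsis receive a topramezone spray at 1×, 2× or 4× field rate (25–100 g ai/ha) or water. Seven days later each plant is graded by its proportion of bleached leaf area.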

Q: Which “Classification and statistics of pesticide damage grade Grade 0” value does the source give for B1 here?
A: 0

Q: What about the “Classification and statistics of pesticide damage grade Grade 1” value of the same molecule?
A: 0

Q: And the “Classification and statistics of pesticide damage grade Grade 2” value?
A: 0

Q: What about the “Classification and statistics of pesticide damage grade Grade 3” value of the same molecule?
A: 16

Q: For B2, which “Classification and statistics of pesticide damage grade Grade 0” value is on record?
A: 16

Q: What about the “Classification and statistics of pesticide damage grade Grade 1” value of the same molecule?
A: 0

Q: What about the “Classification and statistics of pesticide damage grade Grade 2” value of the same molecule?
A: 0

Q: And the “Classification and statistics of pesticide damage grade Grade 3” value?
A: 0

Q: What does the source list for B3?
A: Classification and statistics of pesticide damage grade Grade 0: 16; Classification and statistics of pesticide damage grade Grade 1: 0; Classification and statistics of pesticide damage grade Grade 2: 0; Classification and statistics of pesticide damage grade Grade 3: 0

Q: Which “Classification and statistics of pesticide damage grade Grade 0” value does the source give for B4 here?
A: 16

Q: And the “Classification and statistics of pesticide damage grade Grade 1” value?
A: 0

Q: What about the “Classification and statistics of pesticide damage grade Grade 2” value of the same molecule?
A: 0

Q: What about the “Classification and statistics of pesticide damage grade Grade 3” value of the same molecule?
A: 0

Q: For B5, which “Classification and statistics of pesticide damage grade Grade 0” value is on record?
A: 6

Q: And the “Classification and statistics of pesticide damage grade Grade 1” value?
A: 6

Q: And the “Classification and statistics of pesticide damage grade Grade 2” value?
A: 4

Q: And the “Classification and statistics of pesticide damage grade Grade 3” value?
A: 0

Q: With B6 as the molecule, how does the “Classification and statistics of pesticide damage grade Grade 0” value read?
A: 16

Q: And the “Classification and statistics of pesticide damage grade Grade 1” value?
A: 0

Q: And the “Classification and statistics of pesticide damage grade Grade 2” value?
A: 0

Q: And the “Classification and statistics of pesticide damage grade Grade 3” value?
A: 0

Same assay, conditions: HPPDs from different species; number of plants (of 16) in this grade; topramezone 100 g ai/ha (4x), 7 DAT

Q: Which results are given for B1?
A: Classification and statistics of pesticide damage grade Grade 0: 0; Classification and statistics of pesticide damage grade Grade 1: 0; Classification and statistics of pesticide damage grade Grade 2: 0; Classification and statistics of pesticide damage grade Grade 3: 16

Q: Which “Classification and statistics of pesticide damage grade Grade 0” value does the source give for B2 here?
A: 6

Q: And the “Classification and statistics of pesticide damage grade Grade 1” value?
A: 10

Q: And the “Classification and statistics of pesticide damage grade Grade 2” value?
A: 0

Q: What about the “Classification and statistics of pesticide damage grade Grade 3” value of the same molecule?
A: 0

Q: What does the source list for B3?
A: Classification and statistics of pesticide damage grade Grade 0: 12; Classification and statistics of pesticide damage grade Grade 1: 4; Classification and statistics of pesticide damage grade Grade 2: 0; Classification and statistics of pesticide damage grade Grade 3: 0

Q: What does the source list for B4?
A: Classification and statistics of pesticide damage grade Grade 0: 15; Classification and statistics of pesticide damage grade Grade 1: 1; Classification and statistics of pesticide damage grade Grade 2: 0; Classification and statistics of pesticide damage grade Grade 3: 0

Q: What does the source list for B5?
A: Classification and statistics of pesticide damage grade Grade 0: 0; Classification and statistics of pesticide damage grade Grade 1: 7; Classification and statistics of pesticide damage grade Grade 2: 5; Classification and statistics of pesticide damage grade Grade 3: 4

Q: Which “Classification and statistics of pesticide damage grade Grade 0” value does the source give for B6 here?
A: 13

Q: What about the “Classification and statistics of pesticide damage grade Grade 1” value of the same molecule?
A: 3

Q: And the “Classification and statistics of pesticide damage grade Grade 2” value?
A: 0

Q: What about the “Classification and statistics of pesticide damage grade Grade 3” value of the same molecule?
A: 0

Same assay, conditions: HPPDs from different species; score for pesticide damage 0-100; topramezone 25 g ai/ha (1x), 7 DAT

Q: Which Scores does the source give for B1 here?
A: 100

Q: With B2 as the molecule, how does the Scores read?
A: 0

Q: Which Scores does the source give for B3 here?
A: 0

Q: Which Scores does the source give for B4 here?
A: 0

Q: Which Scores does the source give for B5 here?
A: 21

Q: B6 was tested. Which Scores did it give?
A: 0

Same assay, conditions: HPPDs from different species; score for pesticide damage 0-100; topramezone 100 g ai/ha (4x), 7 DAT

Q: Which Scores does the source give for B1 here?
A: 100

Q: Which Scores does the source give for B2 here?
A: 21

Q: How did the Scores turn out when B3 was run?
A: 8

Q: For B4, which Scores is on record?
A: 2

Q: For B5, which Scores is on record?
A: 60

Q: For B6, which Scores is on record?
A: 6

Same assay, conditions: HPPDs from different species; topramezone 25 g ai/ha (1x), 7 DAT

Q: With B1 as the molecule, how does the Resistance evaluation read?
A: non-resistant (non-resistant plants (scores 68-100))

Q: B2 was tested. Which Resistance evaluation did it give?
A: highly resistant (highly resistant plants (scores 0-15))

Q: For B3, which Resistance evaluation is on record?
A: highly resistant (highly resistant plants (scores 0-15))

Q: For B4, which Resistance evaluation is on record?
A: highly resistant (highly resistant plants (scores 0-15))

Q: B5 was tested. Which Resistance evaluation did it give?
A: moderately resistant (moderately resistant plants (scores 16-33))

Q: B6 was tested. Which Resistance evaluation did it give?
A: highly resistant (highly resistant plants (scores 0-15))

Same assay, conditions: HPPDs from different species; topramezone 100 g ai/ha (4x), 7 DAT

Q: With B1 as the molecule, how does the Resistance evaluation read?
A: non-resistant (non-resistant plants (scores 68-100))

Q: With B2 as the molecule, how does the Resistance evaluation read?
A: moderately resistant (moderately resistant plants (scores 16-33))

Q: With B3 as the molecule, how does the Resistance evaluation read?
A: highly resistant (highly resistant plants (scores 0-15))

Q: B4 was tested. Which Resistance evaluation did it give?
A: highly resistant (highly resistant plants (scores 0-15))

Q: B5 was tested. Which Resistance evaluation did it give?
A: poorly resistant (poorly resistant plants (scores 34-67))

Q: How did the Resistance evaluation turn out when B6 was run?
A: highly resistant (highly resistant plants (scores 0-15))
